Tests used:
[1] = target: Recombinant Ce DHX15 (10x-His-FLAG-3C-ceDHX15) (C. elegans, UniProt Q20875 1-739); experiment: pull-down
[2] = target: T1, Recombinant Ce C19L1(1-277), untagged (C. elegans, UniProt O16216 1-277); experiment: pull-down
T1 sequence: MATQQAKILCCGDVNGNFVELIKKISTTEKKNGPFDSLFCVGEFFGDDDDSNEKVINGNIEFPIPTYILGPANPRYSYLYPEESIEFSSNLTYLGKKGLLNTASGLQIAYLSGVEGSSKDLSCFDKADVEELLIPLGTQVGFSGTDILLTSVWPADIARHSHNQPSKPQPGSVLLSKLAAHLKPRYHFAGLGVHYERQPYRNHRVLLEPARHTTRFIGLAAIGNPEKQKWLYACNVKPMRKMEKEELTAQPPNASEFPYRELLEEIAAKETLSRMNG

[3] = target: T2, Recombinant Ce C19L1 full-length protein, untagged (C. elegans, UniProt O16216 1-533); experiment: pull-down
T2 sequence: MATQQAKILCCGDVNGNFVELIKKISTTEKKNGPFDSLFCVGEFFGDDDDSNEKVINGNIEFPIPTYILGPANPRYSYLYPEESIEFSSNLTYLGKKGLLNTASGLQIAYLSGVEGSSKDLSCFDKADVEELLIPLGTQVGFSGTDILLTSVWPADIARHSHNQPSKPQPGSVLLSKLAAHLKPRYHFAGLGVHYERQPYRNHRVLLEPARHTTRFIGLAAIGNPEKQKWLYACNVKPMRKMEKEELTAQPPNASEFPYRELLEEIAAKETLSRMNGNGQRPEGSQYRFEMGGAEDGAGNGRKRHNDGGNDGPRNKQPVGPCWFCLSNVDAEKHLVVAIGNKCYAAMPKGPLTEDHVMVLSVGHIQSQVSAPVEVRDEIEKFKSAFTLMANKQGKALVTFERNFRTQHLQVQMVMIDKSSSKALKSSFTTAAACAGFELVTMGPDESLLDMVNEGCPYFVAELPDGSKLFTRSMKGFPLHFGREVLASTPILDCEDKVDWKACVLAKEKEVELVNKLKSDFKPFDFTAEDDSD

cryo-EM structure = target: the molecule itself; experiment: cryo-EM structure

Recombinant Ce DHX15 (10x-His-FLAG-3C-ceDHX15), sequence (Q20875 whole entry): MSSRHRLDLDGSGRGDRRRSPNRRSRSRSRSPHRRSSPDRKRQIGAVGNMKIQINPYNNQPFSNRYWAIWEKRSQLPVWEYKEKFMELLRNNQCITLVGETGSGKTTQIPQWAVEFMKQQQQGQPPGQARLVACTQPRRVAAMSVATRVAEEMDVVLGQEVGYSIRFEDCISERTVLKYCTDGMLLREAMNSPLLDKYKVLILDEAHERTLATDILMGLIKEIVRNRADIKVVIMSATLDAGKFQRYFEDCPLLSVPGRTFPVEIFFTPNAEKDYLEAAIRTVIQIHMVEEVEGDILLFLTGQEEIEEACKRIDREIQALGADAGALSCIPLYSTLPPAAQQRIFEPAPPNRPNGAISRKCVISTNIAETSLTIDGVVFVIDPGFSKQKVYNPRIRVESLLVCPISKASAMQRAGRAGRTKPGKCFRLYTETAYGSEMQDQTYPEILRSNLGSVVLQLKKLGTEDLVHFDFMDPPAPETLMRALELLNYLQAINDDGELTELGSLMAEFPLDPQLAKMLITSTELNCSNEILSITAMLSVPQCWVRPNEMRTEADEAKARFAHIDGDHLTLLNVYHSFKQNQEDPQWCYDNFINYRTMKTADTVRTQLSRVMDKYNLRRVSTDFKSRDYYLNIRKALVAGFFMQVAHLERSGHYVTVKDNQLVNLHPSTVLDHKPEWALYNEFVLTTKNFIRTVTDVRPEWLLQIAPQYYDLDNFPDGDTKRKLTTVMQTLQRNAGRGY

Binder: fluorescein-SMNKGNISFVRGAGKTVQQNTTENPDEIDLD-biotin [ceSYF1(788-818)-wildtype peptide]
- binding result [1]: binds
- binding result [2]: binds

Binder: fluorescein-EDEKNKLSAKILKAEMKGDTDLVKKLKRKLESM-biotin [ceC19L2(75-106)-wildtype peptide]
- binding result [3]: binds

B1: 3xFLAG-PRP19 (C. elegans, prp-19) (natural protein)
chain: MSFVCGISGELTEDPVVSQVSGHIFDRRLIVKFIAENGTDPISHGELSEDQLVSLKSGGTGSAPRNVSGTSIPSLLKMLQDEWDTVMLNSFSLRQQLQIARQELSHSLYQHDAACRVISRLSKELTAAREALSTLKPHTSAKVDDDVSIDESEDQQGLSEAILAKLEEKSKSLTAERKQRGKNLPEGLAKTEELAELKQTASHTGIHSTGTPGITALDIKGNLSLTGGIDKTVVLYDYEKEQVMQTFKGHNKKINAVVLHPDNITAISASADSHIRVWSATDSSSKAIIDVHQAPVTDISLNASGDYILSASDDSYWAFSDIRSGKSLCKVSVEPGSQIAVHSIEFHPDGLIFGTGAADAVVKIWDLKNQTVAAAFPGHTAAVRSIAFSENGYYLATGSEDGEVKLWDLRKLKNLKTFANEEKQPINSLSFDMTGTFLGIGGQKVQVLHVKSWSEVVSLSDHSGPVTGVRFGENARSLVTCSLDKSLRVFSF
- stoichiometry N (cryo-EM structure): 4
